The values that follow are results of earlier work, collected in PMC3196573.

The target in series [1] is ALK6 (Homo sapiens) (UniProt O00238).
Series [2] addresses ALK3 (Homo sapiens) (UniProt P36894).
Chain of UniProt P36894 (P36894 24-152): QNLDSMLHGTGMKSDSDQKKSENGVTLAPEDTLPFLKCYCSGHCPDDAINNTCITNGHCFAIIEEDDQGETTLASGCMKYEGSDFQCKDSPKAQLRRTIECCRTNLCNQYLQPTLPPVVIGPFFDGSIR

Chain of UniProt O00238 (O00238 14-126): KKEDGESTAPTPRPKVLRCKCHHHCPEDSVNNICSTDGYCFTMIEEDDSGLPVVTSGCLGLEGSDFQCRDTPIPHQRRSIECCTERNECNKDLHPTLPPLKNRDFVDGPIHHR

In general, Kd refers to the concentration at which binding is half-saturated. Take BMP2 (from UniProt P12643): the Kd in series [1] was 3.6 nM; in series [2], 0.9 nM.
